According to patent US20230242586A1 (University of California, published 2023):
Bridge positions count the residues as written; N and C are the ends. Square brackets hold non-standard residues; d marks the D form.

B1: KD1 (peptide)
peptide: {CH2CO}-[dY]IIVTEKFIWVHHCG-NH2
modifications: thioether N-14
notes: Chemically synthesized linker-free thioether macrocycle; in the mRNA display selection the same peptide stood as a peptide-mRNA/cDNA fusion
B2: KD17 (peptide)
peptide: {CH2CO}-[dY]NYPYRPLELGWYCG-NH2
modifications: thioether N-14
notes: as for B1

Target: T1, biotinylated K-Ras(G12D)·GppNHp (His-Avi-TEV-KRAS (G12D)) (human, biotin on the Avi tag (co-expressed BirA))
T1 construct: Loaded with GppNHp; the protocol for the biotinylated proteins tells of no tag cleavage; Used in the TR-FRET assay
Test: TR-FRET Ras-Raf interaction assay: biotinylated K-Ras(G12D)·GppNHp with GST-Raf1-RBD, peptide titrated (competition)

Binder | binding result
B1 | binds
B2 | binds
